The source of these data is article PMC5701006.

For experiment [1], the target named is human TGF-β3 on the chip with hTβRII extracellular domain bound (2 μM hTβRII in running buffer and samples) (human) (UniProt P37173). Kind of experiment: SPR; as a1 but with 2 μM hTβRII in the HBS-EP running buffer and in the injected hTβRI samples.
The target in experiment [2] is H. polygyrus TGF-β mimic (Hp-TGM), recombinant, amine-coupled to the chip (Heligmosomoides polygyrus). The experiment is described as above.
The target is the same in experiment [3]. The experiment is described as follows: SPR; BIAcore X100; hTGF-β3 or Hp-TGM amine-coupled to a CM5 chip; two-fold dilutions of hTβRI (from 4 µM downwards) injected in HBS-EP at 30 µL/min, room temperature; global fit, simple 1:1 model.

B1: human TGF-β type I receptor extracellular domain (receptor)
chain: LQCFCHLCTKDNFTCVTDGLCFVSVTETTDKVIHNSMCIAEIDLIPRDRPFVCAPSSKTGSVTTTYCCNQDHCNKIELPTTVKSSPGLGPVEL
As for B1, in experiment [1], the dissociation constant Kd was found to be 367 nM, the koff was 0.00179 s⁻¹ and the on-rate (kon) was 4890 M⁻¹ s⁻¹. For the same molecule, in experiment [2], the Kd came to 348 nM, the off-rate constant (koff) was found to be 0.00315 s⁻¹ and the association rate constant (kon) is 9070 M⁻¹ s⁻¹. In experiment [3], the Kd worked out at 351 nM, the koff turned out to be 0.00386 s⁻¹ and the on-rate (kon) was 11000 M⁻¹ s⁻¹.
